The text below walks through data of a protein production outcome set (Wang et al. 2014).

The nature of the series: label from the status in PepcDB records.
As for “MTVTAPNALNFECETGNYHTFCPISCVAWLYQKIEDSFFLVIGTKTCGYFLQNAMGVMIFAEPRYAMAELEEGDISAQLNDYEELKRLCLEIKRDRNPSVIVWIGTCTTEIIKMDLEGLAPKLEAEIGIPIVVARANGLDYAFTQGEDTVLAAMAARCPTSTAISDPEERNPIQRLLNFGKKKEEVQAQSSQYHPHPPLVLFGSLPDPVVTQLTLELKKQGIKVSGWLPAKRYTELPVIDEGYYVAGVNPFLSRTATTLIRRRKCQLITAPFPIGPDGTRTWIEQICATFGIQPQGLAEREAETWQKLSDYLELVRGKSVFFMGDNLLEISLARFLIRCGMRVLEIGIPYMDKRYQAAELALLSQTCAEMGHPLPTIVEKPDNYNQLQRIKALQPDLVITGMAHANPLEARGISTKWSVEFTFAQIHGFGNARDILELVTRPLRRNQALAGLGWQKLVAH”, the protein production entry is reported as “not failed”. For the sequence “MTVTNMTEWFAKGVEALHHDHVYLARACFEQAVTEQRSPLSSSYLALCQAKTRGTFSDAIASAREAVAADPANPALYHNLGCIYLLAGKRTEAIETFRQGLRVGLEHHHHHH”, the protein production entry is “not failed”. To “MTVVSVDKDVEALSFSIVAEFDADVKRVWAIWEDPRQLERWWGPPTWPATFETHEFTVGGKAAYYMTGPDGTKARGWWQFTTIEAPDHLEFDDGFADEHGAPVDELGVTHATVKLEPLENRTRMTIISTFESEEQMQKMAEMGMEEGMREAIEQIDAVLSEPANALEHHHHHH” belongs “not failed”; to “MTWLLIFASLAYVIFLFAVATWGDRLGSWANKISHKPVVYSMSLAIYCTSWTYYGAVGNAAVDGWAFFPILLGPILLFLFGIRILEKLVSVSKQQNITSIADFISSRFGKRRRLAVAVTAIAAVAIIPYIALQLKAVGISFAVLTESSGVMAQFSIKELGAAALMAIFAMLFGTRHVEVTEYRSGMILAIAVESMIKLVALLAAGVFAWFLIQGDAQSDLFSSFSDATKPQWSFAAFGEFEFIVQTLMAAGAILCLPRQFHVAVVDNVDVRHLRTARWGFPLYLALTAAAIVPIAIAGTFYLSATTDGSTFALQLPLLKDQLWLSLVIFIGGISAATAMVIIASVTLSTMITNDVIMPILLQRESRLPLKHRRREYDRALLLIRRVAIAVTMVLSFLCYYFWAARTNLVSIGLLAFSLVLQLLPALLAALYWRKGHARGVYAGLAAGSVGWVLAVLIPLYTDLQLTDVEIITRGTVVSLALNCFGFIVFSLLAKPRLVDRIQATAFVKPRAALPDLHFNKNDSATNADMLLLLRTFLGAERAQQLMQYYQRPENTELPLEGVAEKTFISFVERAIAGVLGSATARSLVDAALRDKQLNLEEVVHFFDDTTQALQTQQSILFSSLENLAQGISVVDAELRLVAWNKRYMDLFQYPEGMVKPGQPIATLIRYNAERGECGPGDVDGLVNKRLRYMQLGSAHRFIRRRADGRVIEMVGNPLPTGGFVTSFTDITSHVETQQALEDANIDLEQRVDVRTQEIREINQELTAEIDRRRQVEDELKKAKAEAEATNASKTRFLALASHDILQPLNAARLYLSAIQEKELSERNLSLVGKLDTALGSTEHLLSTLLSIAKMDQGALKPQFRHVQLSSLLEPLVEEYAVLAEQRKLDFRAFYKDRPVYTDPTYLRRIVQNFLSNAIKYTQRGSVLLGVRKRGDELQIAVWDTGPGIAAQQQNKVFDAFYRVQNQTVDGVGLGLSVAQRMGEQLNCDVQVESVEGKGSCFSVRVPLGNAAQVVSRPKKQLEDALSDPLQLIVVDDDNENLSALSALLNKWGCEALTFNRYSKALAYAKAHSQNKAPHGLLLDYQLGDGDGLQLAQELRDIWQQQIPAALVTAMRDDAVKQAARKSGLQFLPKPAKPAALKAFLKYISTRKAGGARS”, “failed”; to “MTWLMVAVVVVVAAAGLLRWRRPAWYWLTFGALVATVRILVRYASVMEACGLTVPPSRWRLALARMTNRPAPESRPPRILRLRPTRTGLVLRLKLQPGQDAFDVAAATDRLRHSFGVYGVTSRELRSGVVEVRMTGYDVLQRVQMPAPAEPRPMRIPVALREDGAVHYRDYRAVPHGLTLGATESGKSVYQRNLVAGLAPHHVALVGIDCKQGVELFPLARRFSALADNPDTALDLLEALVGHMKDVYQLIRAEQRISVAVPDAEIAADIWDLREDLRAVPVVVLVDEVAELALFASKDEEKRRDRIITALVRLAQLGRAAGIYLEICGQRFGSELGKGITMLRAQLTGRTAHRVNDETSADMAFGDLSPDAVLAAIQLPTDTPGIAVTGDSTGGWARIRAPHTTKSFPDRQKRLAELWLIEIASDMSRGRYVDPRAARVTFKGYAVKWLETHGIDPASQVVVEQRLRLHAFRLIGSRPLDSFRPEHIRGLVSALENDPAVSGGYARNIYGDVRAVLSAAVDDGLLPRNPCSAKSVRPPAVEQRRVVPWLPEQVQAVRAALPQRYRPMVDMGAGCGLRQGEIVGLAEDAVDFASGIVRVLRQVKLIRGKAVFAPPKCNKERDVPLPPSVADALPAHMDAFKPVEITLPWRKPDGPKVSARLLFTNTASGLVWRSNFNVQEWKPALAAAGLISEAGADGKYESAREHGMHALRHFYASVLLDAGESIKAVSEYLGHADPGLTLRVYAHLMPSSQERTRSAIDQSLRFSG”, “failed”. The value for “MTWRKLSICMMVKDEEKNLKRCLESLKPILKGDEVELIVVDTGSKDRTVEIAKQYTNNIFYKPWNYNFSEMRNYTISLAKGEWIFILDADEELEDAKIILKEIEMAEKEGANAINIAVKNLVEENNKQNFVFGFSPRLFRNGFIKYEGAVHNQPIFRPPIYNSKIVIYHYGYIMNDTKLMEYKYKRTVSLLKKELEKDPLNIYYRYQLGVSYSMYGKIREAIEEFGKVYNLLKMENSEIKKGLVVVYGLYANNLLLLGLFDKALEVAEEGLNFNDEYIDLYYIAGLSLYAMGRRQEALVYFKKYMDLFKKVDQIKLLYDARVVFYNISNSYFDNVNAMVVQYLLDINNFLEAKVHIEQFKDNKLKLQYSTLLHIKEKNFNELFDFYSSCNQEDKEKVSEFIEKYITYFKFDEDERLEIYKKFSESNDVYGKYCCIITKKEKVESAILNIFDSNVFELLPSFYTKVLFRVAEKKEFLLETLKKIDVMVLRAKTAEALAAKFIDFEDVIQLLEVMKKEKADIDISARYIALALLVLLNFPRQSDERLYEIFLNYTENGILLISRLYKSEEIEEKYRYFLSEEEKYFALMYMIYLSLQEKRMDKSIKYLREAISTMPKLVKHLKRFSKDILGVDV” was “failed”; that for “MTWSHWEITPFITSVFFILGVLTLFWVSQNWIINFFNTHHWRVDQSLITDWYGLIYMMLFVFGMQTAVVGQNDAWIFMNFQLIGLTFCGYFLNVRVRYYYLYPLVFIFMGFNHSLYYWESWGHAVTLILFFTALGRLRKHVPLQTKQGQVTLYLVTCAGFGAVLWWFMKLKFNLSWATYWQEWTYLLVFASLLYIYASMLSANAHLKQNLVAFANHDALTKIENFAAYKTAINYQVTSSRKNGSQLTMLMFDIDHFKQVNDTYGHLAGDKILQHVAQVATIVFHANNPQISLYRTGGEEFNVIFPNYDLTEALAVAEQLFAAINHIAVPVNDHQIQLSISIGLSELAADDQSPTAFYQRVDANLYHSKKHGRMQITAK” was “failed”. With “MTYCVAMRLDAGLVFLSDSRTNAGVDAISTFRKMTVFEREGDRVMVLLTAGNLAISQAVRQVLTEARDKARSLWTARDMFEATTIVGEAVREVYDRDAAALAKAKIDFNVSIIFGGQIGGERPRLFNVYAAGNFIEATPENCYFQIGEAKYGKPIIDRLIRASLPLDEAAKCALISMDSTLKSNISVGLPLDLLVYEADSLRVTRFVAIDEENPYFAMIRSTWGKRLRQVFAEIEDPDWQTGTHPAHPLRRAGHPTAEVEPVRIAPPAAPPAAEGAAVPQRAPGPAFGQGAAAQRVAGGSHEPH”, the protein production entry is reported as “failed”. The value for “MTYDLTVIIPVYNTEKYLRRCLESIVNQDDIEQCSIKVICINDGSTDESRKIIEEFVEKYSYIEIFNKENGGLADVRNTGLQFINDSLYTVSLDSDDFWDKSFLTEFNKYKSSNYDLIFFDINLVDCDGNPVKELIVNPKFDKYNKKKDFMVVKHAAWSKICRTNLYDNINFPKGKLYEDLAVMPYLTSRAERIHYIQKPLINYVINTPGSIMNSSKSNIFDIYDSLIHLFNLFGNHFEKYRNELQYLAIEHLCVGHTYRLLNYPEATKQDFKDIVIFMEKYFGKHWDKNKYVKRGVQKVNINSSLSYVVPVFLKFLKYGGIIKLYDIKRVLLSKK” was “failed”; that for “MTYEIVIAGFGGQGVLSMGKILAYSGLMEDKEVSWMPSYGPEQRGGTSNVTVIVSDEQVSSPVLNEYDIVIVLNQPSLDKFEARVKKGGILVYDPDSIVLKNKRDDIQIYEVDATQESLRMGNQK” was “failed”. To “MTYHASTPSTPLLVTGGTGTLGGHVVPLLREAGHDVRVLTRRTRPATGNGITYVTGDLRTGEGVEAAVDGVHTVLHLAGGPKGDDEATRTLVRAAARADVRHLAYISVVGADRVPLAWLRTKLESERAIADSGLGWTVLRAAQFHELTLTMIEKMTRLPVLPVPGGLRLQPVAAREVAVRLAELTLAEPSGRVPDMTGPEVLDLATLAHSYLDLRGGRRRPKLPVRIPGKAGRAYRSGQNLTLEDALVGKVTWTEFLAERAAV” belongs “failed”; to “MTYKDYTGLDRTELLSKVRHMMSDKRFNHVLGVERAAIELAERYGYDKEKAGLAALLHDYAKELSDDEFLRLIDKYQPDPDLKKWGNNIWHGLVGIYKIQEDLAIKDQDILAAIAKHTVGSAQMSTLDKIVYVADYIEHNRDFPGVEEARELAKVDLNKAVAYETARTVAFLASKAQPIYPKTIETYNAYIPYLD”, “not failed”; to “MTYKVFIDGEAGTTGLQIRARLEGRDDIRLITLGDADRKDTRARLAAFDAADVGILCLPDAAAVEIVAQLAGTGTRLIDASTAHRVDPGWVFGFAELDNDLRARIAGGQFVSNPGCYSTGAIALLHPLVKRGLIAADQALAINAISGYSGGGKAMIAEFESGKTDGPFVYATEQRHKHLPEIVAHAGLTRQPVFVPSVGPYEQGMIVQVPLPFVEPGQGAAIEAALADHYATSRFVSVVSPDHYGARIDPRRLNGTNQLELSVHGNLDTGGAVLLALLDNLGKGASGAAVQNLNIMLGLDEGLGL”, “failed”.

As to “MTYMNNEVTTKASKQRLEVHKPRPIFFETLTITQIQIFMQSYSRLMQFKVKDLMIDKRRLVEVPDNATLGDALNTMTILGIKPVANRVRAVPVAAKPGQWLGAGGSMIVELDKQSGSARKQYIGMVTMLDVVAHIAGDDGESGLDKKMAAPVSSIIGHCPEGLSLWSLNPNTSIMDCMEMLSKGIHRVLVPLDSNTENITGPELVESASAYAMLSQMDLISFFFDQSSQLHGILSHTVTDLSAIHNTVLALTSQARVKDAIQCMSIAMLNAVPIVEASGEGEDHKQLVDGKNRRVVGTFSASDLKGCHLATLRSWLPLNALEFVEKIPRTLLFTAATSTPGRELVTCHVTSTLAQVIHMVTTKRVHRVWVVDQNGGLQGLVSLTDIIAVVRSALLSGAPDLF”, the protein production result is given as “failed”.

For “MTYNKIMSAAESMEDGIEDMENNLESWGDDMNEYFGDEYEKAETISLDGIKNFFLKAEVGEVKIEISDRADEASYKIQRINPKYFDVEKKGDTISFEDNTPSKFFKNLGFNFKNNSPKIYISLPRNIVFNNFEIKSGVGELDIHDINVEKFNLSAGVGEVNIYDAKISKDAEIKAGVGEVNFKDSTVTNMDIKSGVGSFSFSGTALGKTSVKGGIGEVDLKINGSEKDYDFDVSAGLGEVIINGKKSKTFLADRQKSGSIAQNSITVKGGIGSISIRFKNLEHHHHHH”, the protein production result is listed as “failed”.

For “MTYQALMFDIDGTLTNSQPAYTTVMREVLATYGKPFSPAQAQKTFPMAAEQAMTELGIAASEFDHFQAQYEDVMASHYDQIELYPGITSLFEQLPSELRLGIVTSQRRNELESGMRSYPFMMRMAVTISADDTPKRKPDPLPLLTALEKVNVAPQNALFIGDSVSDEQTAQAANVDFGLAVWGMDPNADHQKVAHRFQKPLDILELFK”, the protein production result was “not failed”.
